From patent US20230242903A1

Key:
Test in all cases: cell-based or functional assay
Halo-TAL1(F238D) (human) = Halo-TAL1(F238D) (human) (UniProt P17542)
Halo-TAL1 (human) = Halo-TAL1 (human) (UniProt P17542)
Halo-LYL1 (human) = Halo-LYL1 (human) (UniProt P12980)
Halo-LMO2 (human) = Halo-LMO2 (human) (UniProt P25791)
Halo-LYL1(F201D) (human) = Halo-LYL1(F201D) (human) (UniProt P12980)

Sequence of UniProt P25791 (P25791 whole entry): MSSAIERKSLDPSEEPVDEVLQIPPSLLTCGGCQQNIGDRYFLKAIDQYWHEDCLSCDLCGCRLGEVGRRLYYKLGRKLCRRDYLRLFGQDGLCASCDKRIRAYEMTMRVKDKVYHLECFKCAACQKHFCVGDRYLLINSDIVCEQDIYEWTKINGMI

| Substance | Halo-TAL1(F238D) t1/2 with HA-LDB1 co-expressed, HaloLife assay (Halo-TAL1(F238D) (human)) [h] | Halo-TAL1 t1/2 with HA-LDB1 co-expressed in the presence of LMO2, HaloLife assay (Halo-TAL1 (human)) [h] | Halo-LYL1 t1/2 with HA-LDB1 co-expressed in the presence of LMO2, HaloLife assay (Halo-LYL1 (human)) [h] | Halo-LMO2 t1/2, HaloLife pulse chase in Jurkat cells (6.6 hours without co-expression) (Halo-LMO2 (human)) [h] | Halo-LYL1(F201D) t1/2 with HA-LDB1 co-expressed, HaloLife assay (Halo-LYL1(F201D) (human)) [h] |
| --- | --- | --- | --- | --- | --- |
| HA-LDB1 (from UniProt Q86U70 1-375) | 10.7 | 19.9 | 20.5 | 20.6 | 3.7 |
| HA-LDB1ΔLID (from UniProt Q86U70 1-375) |  |  |  | 4 |  |
